Tests used:
[1] = substrate: CCc1c2c(nc3ccc(OC(=O)N4CCC(N5CCCCC5)CC4)cc13)-c1cc3c(c(=O)n1C2)COC(=O)[C@]3(O)CC; assay: purified protein, by the assay type; conditions: other: CPT-11 hydrolysis, hCE1m6
[2] = Carboxylesterase (CE) activity of whole cell sonicates of transiently transfected Cos7 cells, o-NPA substrate; format: biochemical
Description: (§1) Whole cell sonicates were monitored for CE activity. Results were expressed as nmoles o-nitrophenol produced per minute per milligram of total protein. To correct for differences in CE expression within transfected cells, the enzyme activity values were corrected for the level of immunoreactive CE protein as determined using a western blot analysis.
(§2) Carboxylesterase Assays. CE activity was determined using a spectrophotometric assay with 3 mM o-nitrophenyl acetate (o-NPA) as a substrate (Potter, et al. 1998. Cancer Res. 52:2646-2651; Wierdl, et al. 2001. Cancer Res. 61:5078-5082; Beaufay, et al. 1974. J. Cell Biol. 61:188-200). Data were expressed as nmoles o-nitrophenol produced per minute per milligram of protein. To correct for differences in CE expression within transfected cells, the enzyme activity values were corrected for the level of immuno-reactive CE protein as determined from western analyses.
(§3) Transfection of Cell Lines. Transient transfection of Cos7 cells was achieved by electroporation (Potter, et al. 1998. Cancer Res. 52:2646-2651). For the generation of stable cell lines, cDNAs were ligated into pIRESneo and U373MG cells were electroporated under similar conditions. Transfectants were selected in media containing 400 μg/ml of G418. Since the CE cDNA was linked via an internal ribosome entry sequence (IRES) to the neomycin gene, selection of individual G418-resistant clones was not necessary. Routinely, whole cell sonicates obtained from these pooled populations of cells contained 200-500 nmoles/min/mg of CE activity.
(§4) Western Analysis. Cell extracts were separated in 4-20% pre-cast SDS-PAGE gels (Invitrogen, Carlsbad, Calif.) and following transfer to Immobilon-P membranes by electroblotting (Matsuidaira. 1990. Methods Enzymol. 182:602-613), western analysis was performed using known methods (Morton & Potter. 1998. J. Pharmacol. Expt. Therap. 286:1066-1073). CEs were identified using an anti-peptide antibody raised against the C-terminal amino acids […] In all experiments, membranes were re-probed with an anti-TFIID antibody to confirm equal loading, and to correct for any differences in total protein. The molecular weight of immuno-reactive bands was determined using pre-stained molecular weight protein markers (Pierce, Rockford, Ill.). Densitometric quantitation of CE expression was performed using One-Dscan gel analysis software (Scanalytics Inc, Fairfax, Va.).

[3] = CPT-11 conversion assay (CPT-11 to SN-38) with extracts of transfected COS-7 cells, HPLC; format: biochemical; conditions: Cos7 cell extracts
Description: as §1
This was necessary since it was unclear whether the mutations would influence the ability of the CEs to metabolize o-NPA, which is used as a measure of enzyme activity.
CPT-11 Conversion Assays. […] An equal volume of acidified methanol was added to terminate the reactions and particulate matter was removed by centrifugation at 100,000 g for 5 minutes at 4° C. Concentrations of both drugs in the supernatant were then determined by HPLC (Guichard, et al. 1998. Clin. Cancer Res. 4:3089-3094; Morton, et al. 2000. Cancer Res. 60:4206-4210).
as §4

[4] = Kinetic parameters for CPT-11 hydrolysis by purified recombinant CEs; format: biochemical; conditions: hCE1 and rCE values rest on cited data
Description: To directly compare the abilities of the mammalian CEs to hydrolyze CPT-11, a series of biochemical studies were carried out using the purified proteins in vitro. These experiments determined the Km, Vmax, kcat and kcat/Km values for the different enzymes.
Protein Purification. […] For hiCE, an alternative purification procedure was developed using DEAE chromatography and elution with a pH/salt gradient.
Determination of Kinetic Parameters for Substrate Hydrolysis.

[5] = system: U373MG cells; assay: Growth inhibition by CPT-11 of U373MG cells; format: cell-based, human; conditions: for sensitization of cells to CPT-11: U373MG cells expressing the labelled enzyme
Description: Experiments were also performed in human brain tumor cells (U373MG) where the growth of the cells was examined in cells that expressed the mutant form of the human CE enzyme.
Experiments were also performed to determine whether cells expressing a secreted form of hCElm6 (SEQ ID NO:16) produced media that had CE activity.
as §3, with “necessary.” for “necessary. Routinely, whole cell sonicates obtained from these pooled populations of cells contained 200-500 nmoles/min/mg of CE activity.”
(§5) Construction of Adenovirus. Replication-deficient adenovirus expressing hCElm6 or rCE were constructed using standard protocols (Wierdl, et al. 2001. Cancer Res. 61:5078-5082). Multiplicity of infection (moi) was defined as the number of plaques produced in 1×10^6 293 cells in a total volume of 1 ml of media after incubation with virus for 1 hour.
Growth Inhibition Assays.

[6] = CE activity (o-NPA) in human tumor cell lines expressing CE after plasmid transfection or adenoviral transduction; format: biochemical; conditions: for CE Activity: ± SD, U373MG cells stably transfected (pIRESneo) expressing the enzyme
Description: […], it was observed that expression of hiCE following plasmid-mediated transfection was frequently lower than that seen with rCE or […]. […] Since expression of the transgene from this expression vector is co-regulated with the neo gene via an IRES sequence, selection with similar concentrations of G418 should result in cell lines that express approximately equal levels of recombinant protein. However, the average levels of CE activity in U373hiCE, U373hCE1 and U373hCE1m6 cells were 287.6±76.6, 1077.1±77.5, and 466.5±52.6 nmoles/min/mg, respectively.
as §2, §3, §5

[7] = Table 3, Cos7 whole cell sonicates, 3 mM o-NPA, nmoles o-nitrophenol per min per mg
[8] = Table 4, rCE mutant panel, Cos7 extracts, o-NPA

B1: hCE1 variant hCE1m6 (hCE1mut6; L362M, M363L, K459R, F448Y, Q449R, L358I, S364G, Q362 insertion), SEQ ID NO:3 (Homo sapiens; … (protein)
chain: GHPSSPPVVDTVHGKVLGKFVSLEGFAQPVAIFLGIPFAKPPLGPLRFTPPQPAEPWSFVKNATSYPPMCTQDPKAGQLLSELFTNRKENIPLKLSEDCLYLNIYTPADLTKKNRLPVMVWIHGGGLMVGAASTYDGLALAAHENVVVVTIQYRLGIWGFFSTGDEHSRGNWGHLDQVAALRWVQDNIASFGGNPGSVTIFGESAGGESVSVLVLSPLAKNLFHRAISESGVALTSVLVKKGDVKPLAEQIAITAGCKTTTSAVMVHCLRQKTEEELLETTLKMKFLSLDLQGDPRESQPLLGTVIDGMLLLKTPEELQAERNFHTVPYMVGINKQEFGWIIPMQMLGYPLSEGQLDQKTAMSLLWKSYPLVCIAKELIPEATEKYLGGTDDTVKKKDLFLDLIADVMFGVPSVIVARNHRDAGAPTYMYEYRYRPSFSSDMRPKTVIGDHGDELFSVFGAPFLKEGASEEEIRLSKMVMKFWANFARNGNPNGEGLPHWPEYNQKEGYLQIGANTQAAQKLKDKEVAFWTNLFAKKAVEKPPQTEHIEL
- Km [1]: 6.25 ± 0.59 µM

B2: hCE1: wild-type human liver carboxylesterase, Genbank M73499 (protein, listed as Homo sapiens)
chain: MWLRAFILATLSASAAWGHPSSPPVVDTVHGKVLGKFVSLEGFAQPVAIFLGIPFAKPPLGPLRFTPPQPAEPWSFVKNATSYPPMCTQDPKAGQLLSELFTNRKENIPLKLSEDCLYLNIYTPADLTKKNRLPVMVWIHGGGLMVGAASTYDGLALAAHENVVVVTIQYRLGIWGFFSTGDEHSRGNWGHLDQVAALRWVQDNIASFGGNPGSVTIFGESAGGESVSVLVLSPLAKNLFHRAISESGVALTSVLVKKGDVKPLAEQIAITAGCKTTTSAVMVHCLRQKTEEELLETTLKMKFLSLDLQGDPRESQPLLGTVIDGMLLLKTPEELQAERNFHTVPYMVGINKQEFGWLIPMLMSYPLSEGQLDQKTAMSLLWKSYPLVCIAKELIPEATEKYLGGTDDTVKKKDLFLDLIADVMFGVPSVIVARNHRDAGAPTYMYEFQYRPSFSSDMKPKTVIGDHGDELFSVFGAPFLKEGASEEEIRLSKMVMKFWANFARNGNPNGEGLPHWPEYNQKEGYLQIGANTQAAQKLKDKEVAFWTNLFAKKAVEKPPQTEHIEL
- CE Activity [2, 7]: 119.0 ± 5.0 nmol/min/mg
- CE Activity [2, 8]: 329.2 ± 11.6 nmol/min/mg CE
- CPT-11 Converting Activity ([3]; Table 4, rCE mutant panel): Not Detected
- Ratio kcat/Km as compared to hCE1 [4]: 1
- sensitization of cells to CPT-11 [5]: not sensitized
- average levels of CE activity ([6]; U373MG cells stably transfected with pIRESneo constructs, monitored over an extended time period): 1077.1 ± 77.5 nmol/min/mg
- CE Activity [6]: 1016.4 ± 45.5 nmol/min/mg

B3: rCE: wild-type rabbit liver carboxylesterase, Genbank AF036930 (protein, listed as Oryctolagus cuniculus)
chain: GSLRFAPPQPAESWSHVKNTTSYPPMCSQDAVSGHMLSELFTNRKENIPLKFSEDCLYLNIYTPADLTKRGRLPVMVWIHGGGLMVGGASTYDGLALSAHENVVVVTIQYRLGIWGFFSTGDEHSRGNWGHLDQVAALRWVQDNIANFGGDPGSVTIFGESAGGQSVSILLLSPLTKNLFHRAISESGVALLSSLFRKNTKSLAEKIAIEAGCKTTTSAVMVHCLRQKTEEELMEVTLKMKFMALDLVGDPKENTAFLTTVIDGVLLPKAPAEILAEKKYNMLPYMVGINQQEFGWIIPMQMLGYPLSEGKLDQKTATELLWKSYPIVNVSKELTPVATEKYLGGTDDPVKKKDLFLDMLADLLFGVPSVNVARHHRDAGAPTYMYEYRYRPSFSSDMRPKTVIGDHGDEIFSVLGAPFLKEGATEEEIKLSKMVMKYWANFARNGNPNGEGLPQWPAYDYKEGYLQIGATTQAAQKLKDKEVAFWTELWAKEAARPRETEHIEL
- CE Activity [2, 7]: 332.7 ± 17.2 nmol/min/mg
- CE Activity [2, 8]: 243.1 ± 17.0 nmol/min/mg CE
- CPT-11 Converting Activity ([3]; Table 3, 5 μM CPT-11, 1 hour, corrected for CE protein by western): 41 pmol/hr/mg CE
- CPT-11 Converting Activity ([3]; Table 4, rCE mutant panel): 75.6 pmol/hr/mg CE
- Ratio kcat/Km as compared to hCE1 [4]: 650
- sensitization of cells to CPT-11 [5]: sensitized
- CE Activity [6]: 601.0 ± 20.5 nmol/min/mg

B4: secreted form of hCE1mut6: mutant human CE lacking the six C-terminal amino acid residues (Thr-Glu-His-Ile-Glu-Leu); expressed from pIRESmut6C (protein)
chain: MWLRAFILATLSASAAWGHPSSPPVVDTVHGKVLGKFVSLEGFAQPVAIFLGIPFAKPPLGPLRFTPPQPAEPWSFVKNATSYPPMCTQDPKAGQLLSELFTNRKENIPLKLSEDCLYLNIYTPADLTKKNRLPVMVWIHGGGLMVGAASTYDGLALAAHENVVVVTIQYRLGIWGFFSTGDEHSRGNWGHLDQVAALRWVQDNIASFGGNPGSVTIFGESAGGESVSVLVLSPLAKNLFHRAISESGVALTSVLVKKGDVKPLAEQIAITAGCKTTTSAVMVHCLRQKTEEELLETTLKMKFLSLDLQGDPRESQPLLGTVIDGMLLLKTPEELQAERNFHTVPYMVGINKQEFGWIIPMQMLGYPLSEGQLDQKTAMSLLWKSYPLVCIAKELIPEATEKYLGGTDDTVKKKDLFLDLIADVMFGVPSVIVARNHRDAGAPTYMYEYRYRPSFSSDMRPKTVIGDHGDELFSVFGAPFLKEGASEEEIRLSKMVMKFWANFARNGNPNGEGLPHWPEYNQKEGYLQIGANTQAAQKLKDKEVAFWTNLFAKKAVEKPPQ
modifications: Synthethic mutant human carboxylesterase
notes: mutant human CE lacking the six C-terminal amino acid residues (Thr-Glu-His-Ile-Glu-Leu); expressed from pIRESmut6C
- fold reduction in the IC50 value for CPT-11 ([5]; U373MG cells expressing intracellular (u373IRESmut6) or secreted (U373IRESmut6C) form, FIG. 4): ~130 fold

Reference: US9492510B2, “Composition and method for inhibiting tumor cell growth” (St. Jude Children's Research Hospital, priority 2006, dated 2016)
